Assay results taken from paper PMC9758056, “Structural basis for Parkinson’s disease-linked LRRK2’s binding to microtubules” (Nature Structural & Molecular Biology, 2022).

Target: the molecule itself
Assay: cryo-EM imaging with calculated diffraction patterns (layer lines); tubulin or microtubules with LRRK2^RCKW (WT or mutant), with or without MLi-2; layer lines in diffraction patterns calculated from images of single filaments, 2D class averages

B1: LRRK2^RCKW-S2345D (domain or fragment, human)
chain: KKAVPYNRMKLMIVGNTGSGKTTLLQQLMKTKKSDLGMQSATVGIDVKDWPIQIRDKRKRDLVLNVWDFAGREEFYSTHPHFMTQRALYLAVYDLSKGQAEVDAMKPWLFNIKARASSSPVILVGTHLDVSDEKQRKACMSKITKELLNKRGFPAIRDYHFVNATEESDALAKLRKTIINESLNFKIRDQLVVGQLIPDCYVELEKIILSERKNVPIEFPVIDRKRLLQLVRENQLQLDENELPHAVHFLNESGVLLHFQDPALQLSDLYFVEPKWLCKIMAQILTVKVEGCPKHPKGIISRRDVEKFLSKKRKFPKNYMSQYFKLLEKFQIALPIGEEYLLVPSSLSDHRPVIELPHCENSEIIIRLYEMPYFPMGFWSRLINRLLEISPYMLSGRERALRPNRMYWRQGIYLNWSPEAYCLVGSEVLDNHPESFLKITVPSCRKGCILLGQVVDHIDSLMEEWFPGLLEIDICGEGETLLKKWALYSFNDGEEHQKILLDDLMKKAEEGDLLVNPDQPRLTIPISQIAPDLILADLPRNIMLNNDELEFEQAPEFLLGDGSFGSVYRAAYEGEEVAVKIFNKHTSLRLLRQELVVLCHLHHPSLISLLAAGIRPRMLVMELASKGSLDRLLQQDKASLTRTLQHRIALHVADGLRYLHSAMIIYRDLKPHNVLLFTLYPNAAIIAKIADYGIAQYCCRMGIKTSEGTPGFRAPEVARGNVIYNQQADVYSFGLLLYDILTTGGRIVEGLKFPNEFDELEIQGKLPDPVKEYGCAPWPMVEKLIKQCLKENPQERPTSAQVFDILNSAELVCLTRRILLPKNVIVECMVATHHNSRNASIWLGCGHTDRGQLSFLDLNTEGYTSEEVADSRILCLALVHLPVEKESWIVSGTQSGTLLVINTEDGKKRHTLEKMTDSVTCLYCNSFSKQSKQKNFLLVGTADGKLAIFEDKTVKLKGAAPLKILNIGNVSTPLMCLSESTNSTERNVMWGGCGTKIFSFSNDFTIQKLIETRTSQLFDYAAFSDSNIITVVVDTALYIAKQNSPVVEVWDKKTEKLCGLIDCVHFLREVMVKENKESKHKMSYSGRVKTLCLQKNTALWIGTGGGHILLLDLSTRRLIRVIYNFCNSVRVMMTAQLGSLKNVMLVLGYNRKNTEGTQKQKEIQSCLTVWDINLPHEVQNLEKHIEVRKELAEKMRRTSVE
notes: LRRK2, human, carboxy-terminal catalytic half with the ROC, COR, kinase and WD40 domains; also called p.S2345D; WD40 dimerization interface mutant; source: Sf9 insect cells, baculovirus, purified (Ni-NTA, SP Sepharose, TEV cleavage, second Ni-NTA, S200 gel filtration); not shown: His6-Z, N-terminal, cleaved
  binding result: binds

B2: LRRK2^RCKW-G2019S (domain or fragment, human)
chain: KKAVPYNRMKLMIVGNTGSGKTTLLQQLMKTKKSDLGMQSATVGIDVKDWPIQIRDKRKRDLVLNVWDFAGREEFYSTHPHFMTQRALYLAVYDLSKGQAEVDAMKPWLFNIKARASSSPVILVGTHLDVSDEKQRKACMSKITKELLNKRGFPAIRDYHFVNATEESDALAKLRKTIINESLNFKIRDQLVVGQLIPDCYVELEKIILSERKNVPIEFPVIDRKRLLQLVRENQLQLDENELPHAVHFLNESGVLLHFQDPALQLSDLYFVEPKWLCKIMAQILTVKVEGCPKHPKGIISRRDVEKFLSKKRKFPKNYMSQYFKLLEKFQIALPIGEEYLLVPSSLSDHRPVIELPHCENSEIIIRLYEMPYFPMGFWSRLINRLLEISPYMLSGRERALRPNRMYWRQGIYLNWSPEAYCLVGSEVLDNHPESFLKITVPSCRKGCILLGQVVDHIDSLMEEWFPGLLEIDICGEGETLLKKWALYSFNDGEEHQKILLDDLMKKAEEGDLLVNPDQPRLTIPISQIAPDLILADLPRNIMLNNDELEFEQAPEFLLGDGSFGSVYRAAYEGEEVAVKIFNKHTSLRLLRQELVVLCHLHHPSLISLLAAGIRPRMLVMELASKGSLDRLLQQDKASLTRTLQHRIALHVADGLRYLHSAMIIYRDLKPHNVLLFTLYPNAAIIAKIADYSIAQYCCRMGIKTSEGTPGFRAPEVARGNVIYNQQADVYSFGLLLYDILTTGGRIVEGLKFPNEFDELEIQGKLPDPVKEYGCAPWPMVEKLIKQCLKENPQERPTSAQVFDILNSAELVCLTRRILLPKNVIVECMVATHHNSRNASIWLGCGHTDRGQLSFLDLNTEGYTSEEVADSRILCLALVHLPVEKESWIVSGTQSGTLLVINTEDGKKRHTLEKMTDSVTCLYCNSFSKQSKQKNFLLVGTADGKLAIFEDKTVKLKGAAPLKILNIGNVSTPLMCLSESTNSTERNVMWGGCGTKIFSFSNDFTIQKLIETRTSQLFSYAAFSDSNIITVVVDTALYIAKQNSPVVEVWDKKTEKLCGLIDCVHFLREVMVKENKESKHKMSYSGRVKTLCLQKNTALWIGTGGGHILLLDLSTRRLIRVIYNFCNSVRVMMTAQLGSLKNVMLVLGYNRKNTEGTQKQKEIQSCLTVWDINLPHEVQNLEKHIEVRKELAEKMRRTSVE
notes: LRRK2, human, carboxy-terminal catalytic half with the ROC, COR, kinase and WD40 domains, with the PD-linked mutation p.G2019S; also called LRRK2^RCKW carrying p.G2019S; source: Sf9 insect cells, baculovirus, purified (Ni-NTA, SP Sepharose, TEV cleavage, second Ni-NTA, S200 gel filtration); not shown: His6-Z, N-terminal, cleaved
  binding result: binds
